Drawing on publication PMC5775914 (Cell chemical biology, 2017), this text covers Kd for one molecule.

In the assay the target is fluorescein-labeled histone H3 N-terminal peptide (residues 1-21) (UniProt P68431 2-22, fluorescein-labeled (position not given)). The assay can be described thus: fluorescence polarisation.

B1: recombinant UBR7 PHD finger (domain or fragment)
chain: GLYCICKRPYPDPEDEIPDEMIQCVVCEDWFHGRHLGAIPPESGDFQEMVCQACMKR
Take B1: the Kd fell in the range of 50 to 100 µM.
